Data from the DeepSol protein solubility set.

experiment: soluble on expression in E. coli; label from the status in PepcDB or PDB records

Sequence	soluble on expression in E. coli
MTKVTEHLEKQLAENRVKQEEARRAREEEKQRSDNAFNNAERAFERKLEEQRKENQENQKELELEMDNSRLKHEMLYREKQKEHEDVMGAMRNASSAERSAAANMHEKELNLLRKTHESEMKNCEVQMEAIRQKGEREVRDVEDQMAKLHLERGAELDKHHKKMLKMVEKSHEDCTREKVKQHALKMLEMKNEGQRKAIEHKIVMEKLEQARGMSQRLAVNEANREVYRLFMAIMEPVNEARSNLGDIKALCDNNGEDYEDSDTACAEYYSSGIGNSRSIFDIRTNAFRDFVLNQPNCDHELVIACQTAINSMKKPMESTTIRSACTTLPRFMGEQRHLRITAILQNIDDLTSTLEAISDDVRLNFVSWKQLEIVEAVVEQKTIEKE	soluble
MSLNSFNLEGKVALVTGCKRGIGKAMAVALAQAGVDVIGVSASLESEGSDVAKAVEATGRKFSAYKCDFNSREAIYTFIEQVKAAHPVIDILVNNAGTILRAPAAEHGDSLWDEVINVNLNSQFILSRELGREMVKRGSGKVIFTASLLTFQGGITVPGYAASKGAIGQLTKALANEWAGSGVNVNAIAPGYIATDNTQALRDDPERATSILSRIPQNRWGKPEDFAGPVVFLASEAASYVNGSVMVVDGGWMGREGHHHHHH	not soluble
MGSSHHHHHHSSGLVPRGSHMNQDPTQQLEPFLKRFLASLDLLYTQPTSQPFPNVESYATQLGSNLKRSSAIIVNGQPIIPSPQEDCKLQFQKKWLQTPLSSHQLTSYDGHLIPGTGTFVVHFSAKVRFDQSGRNRLGESADLFQENNSIVSKTNQRPIWGSWFGVDVNLVVDENVMQDGEIINSMDYRFTYVPNDSIIKV	soluble
LSFYHPEDRETVSDAVDAALNDGDPYDLEVRLITARGNHRWVRTRGKRVEGAEKPTVRGFIQDITEQKER	not soluble
MAHHHHHHMSIDAGLCDRYVVFLDIDGVLLPVPKFTFGGGNLSGRCAQTLKRLIAALGGRDKVTLVLSSTWRNHPVMVDRLNTFMQKEAGDGIPVVSERTPNGTVLMSSVTYYADDPSEQRLVRDRVDEVYRWLHTHITDHPEAIGGRWFAIDDMQLDVDERMRGHFLHTQTDVGITEADVDTACAMIASHPSPTEAYAAAVAALADPALKAEEVEIQRVLQSRLEAQLAATTAELTEAQEKMAALSAEKKDLIKELAEKQRSIDDMRYRLAVYDFSKRYPCLATAVELAGTKSGAERRAMDAAIRTFVTLLMDRKELQKKMRSEAKKVKQAS	not soluble
MGSDKIHHHHHHMTVLHSVDFFPSGKAPVAIEPRLPQAAFPEHHHDFHEIVIVEHGTGIHVFNGQPYTISGGTVCFVRDHDRHLYEHTDNLCLTNVLWRSPDAFQFLAGLDQLLPQEQDGYYPSHWRVNQSVLQQVRQLVGLMERAGDGMDAPAVANREILFMQLLVLLRRSSLMEGATNNDAKLNQLMAWLEDHFAEEVCWEAVAEQFSLSLRTLHRQLKQHTGLTPQRYLNRLRLIKARHLLRHSDHSVTEIAYRCGFGDSNHFSTLFRREFNWSPRDIRQGRDAIIQ	not soluble
MRPLILSIFALFLAGCTHSQQSMVDTFRASLFDNQDITVADQQIQALPYSTMYLRLNEGQRIFVVLGYIEQEQSKWLSQDNAMLVTHNGRLLKTVKLNNNLLEVTNSGQDPLRNALAIKDGSRWTRDILWSEDNHFRSATLSSTFSFAGLETLHIAGRDVLCNVWQEEVTSTLPEKQWQNTFWVDSATGQVRQSRQMLGAGVIPVEMTFLKPAP	not soluble
MVEIFNEIMQRVKEAETIIIHRHVRPDPDAYGSQLGLKLYLERKFPEKNIYATGEAEPSLSFIGDLDEIDDSVYSDALVIVCDTANAPRIDDQRYLNGQSLIKIDHHPATDQYGDVNFVNTEASSTSEIIFDFISHFNDLSIIDEHVARVLYLGIVGDTGRFLFSNTSPHTMEVASQLLAYPFNHNAELNKMSEKDPKLMPFQGYVLQNFELSDSHEYCQIKITNDVLKQFDIQPNEASQFVNTVADISGLKIWMFGVDEGDQIRCRIRSKGITINDVANQFGGGGHPNASGVSVYSWDEFEELAQALRQKLLEHHHHHH	soluble
